The chains are these.
B1: N-terminally fluorescein isothiocyanate (FITC)-labelled GR25 (peptide)
peptide: {FITC}-GRGRGRGRGRGRGRGRGRGRGRGRGRGRGRGRGRGRGRGRGRGRGRGRGR
notes: C9orf72 repeat-derived dipeptide repeat; also called FITC-labeled GR25; FITC-GR25; source: synthetic peptide (Peptide Specialty Laboratories GmbH, HPLC-purified)
B2: N-terminally fluorescein isothiocyanate (FITC)-labelled PR25 (peptide)
peptide: {FITC}-PRPRPRPRPRPRPRPRPRPRPRPRPRPRPRPRPRPRPRPRPRPRPRPRPR
notes: C9orf72 repeat-derived dipeptide repeat; also called FITC-labeled PR25; FITC-PR25; source: synthetic peptide (Peptide Specialty Laboratories GmbH, HPLC-purified)

In one assay the target is T1, p53^TAD2 (Homo sapiens, UniProt P04637).
T1 construct: amino acids 37 to 57 (p53 ^TAD2); ZZ-His6 (cleaved yes); made in house; host or cells: E. coli BL21-DE3 Star
In words: Fluorescence polarization, FITC-labeled PR25/GR25 with p53^TAD2. The class given is binding. As to conditions: 100 nM FITC-labelled (N-terminal) peptide, 20 mM Hepes pH 7.0, 50 mM NaCl, 2 mM TCEP, 0.04% NaN3, room temperature, 35 µL, λex 495/λem 530 nm; 1:1 complex; mean of three experiments, errors = SD of the fit; read-out: equilibrium dissociation constant (Kd), p53^TAD2. The text has this:
Measurements were taken at room temperature in black 384-well plates using a ClarioStar Plus (BMG labtech, Ortenberg, Germany) spectrophotometer. Filters were selected as a function of FITC optical characteristics (λex= 495 nm, and λem= 530 nm). […] The polarization data were fitted using graphpad prism 8 with the following equation:(3) P=P0+Pmax×L/L + Kd
Here, P0 represents the polarization of FITC-labelled peptides in absence of p53^1−94 and p53^TAD2, and Pmax to the highest polarization of the binding curve corresponding to the saturation of the interaction. L corresponds to the concentration of p53^1–94 and p53^TAD2 proteins, and Kd is the dissociation constant.
On the technique in general: Polarisation of emitted light reports the rotation of a fluorescent probe.

Assay [1] has as its target T2, p53^1-94 (human p53 residues 1 to 94: transactivation domains 1 and 2 and poly-proline region) (human, UniProt P04637 1-94).
T2 construct: human p53, amino acids 1 to 94; 15N- or 13C,15N-labelled for NMR, unlabelled for fluorescence polarisation; also called N-terminal disordered region; source: E. coli BL21-DE3 Star, purified (lysis in 6 M urea, Ni-NTA, TEV cleavage, second Ni-NTA, SEC on Superdex 75 Increase)
In words: fluorescence polarisation; 100 nM FITC-labelled PR25/GR25 with increasing concentrations of p53 1-94 or p53 TAD2; room temperature; 20 mM Hepes pH 7.0, 50 mM NaCl, 2 mM TCEP, 0.04% NaN3; fit assuming a 1:1 complex. As to conditions: both partners purified.

In assay [2] the target is B2. Described as above. As to conditions: both partners purified.
For assay [3], the target named is B1. Described as above. As to conditions: both partners purified.

Where no end group is shown, it is not given here. The star is where a group is joined. FITC = O=C1OC2(c3ccc(O)cc3Oc3cc(O)ccc32)c2ccc(NC(=S)*)cc21

In general, Kd refers to the free concentration of one partner at which half of the binding sites on the other are occupied at equilibrium, for simple one-to-one binding.

T2 sequence (P04637 1-94): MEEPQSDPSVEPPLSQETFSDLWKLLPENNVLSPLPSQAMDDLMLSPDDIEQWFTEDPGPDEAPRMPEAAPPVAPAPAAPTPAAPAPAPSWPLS

As to `N=C(N)NCCC[C@H](NC(=O)CNC(=O)[C@H](CCCNC(=N)N)NC(=O)CNC(=O)[C@H](CCCNC(=N)N)NC(=O)CNC(=O)[C@H](CCCNC(=N)N)NC(=O)CNC(=O)[C@H](CCCNC(=N)N)NC(=O)CNC(=O)[C@H](CCCNC(=N)N)NC(=O)CNC(=O)[C@H](CCCNC(=N)N)NC(=O)CNC(=O)[C@H](CCCNC(=N)N)NC(=O)CNC(=O)[C@H](CCCNC(=N)N)NC(=O)CNC(=O)[C@H](CCCNC(=N)N)NC(=O)CNC(=O)[C@H](CCCNC(=N)N)NC(=O)CNC(=O)[C@H](CCCNC(=N)N)NC(=O)CNC(=O)[C@H](CCCNC(=N)N)NC(=O)CNC(=O)[C@H](CCCNC(=N)N)NC(=O)CNC(=O)[C@H](CCCNC(=N)N)NC(=O)CNC(=O)[C@H](CCCNC(=N)N)NC(=O)CNC(=O)[C@H](CCCNC(=N)N)NC(=O)CNC(=O)[C@H](CCCNC(=N)N)NC(=O)CNC(=O)[C@H](CCCNC(=N)N)NC(=O)CNC(=O)[C@H](CCCNC(=N)N)NC(=O)CNC(=O)[C@H](CCCNC(=N)N)NC(=O)CNC(=O)[C@H](CCCNC(=N)N)NC(=O)CNC(=O)[C@H](CCCNC(=N)N)NC(=O)CNC(=O)[C@H](CCCNC(=N)N)NC(=O)CNC(=O)[C@H](CCCNC(=N)N)NC(=O)CN)C(=O)O` [GR25], on p53^TAD2, the Kd was 2850 ± 510 nM.

Regarding `N=C(N)NCCC[C@H](NC(=O)[C@@H]1CCCN1C(=O)[C@H](CCCNC(=N)N)NC(=O)[C@@H]1CCCN1C(=O)[C@H](CCCNC(=N)N)NC(=O)[C@@H]1CCCN1C(=O)[C@H](CCCNC(=N)N)NC(=O)[C@@H]1CCCN1C(=O)[C@H](CCCNC(=N)N)NC(=O)[C@@H]1CCCN1C(=O)[C@H](CCCNC(=N)N)NC(=O)[C@@H]1CCCN1C(=O)[C@H](CCCNC(=N)N)NC(=O)[C@@H]1CCCN1C(=O)[C@H](CCCNC(=N)N)NC(=O)[C@@H]1CCCN1C(=O)[C@H](CCCNC(=N)N)NC(=O)[C@@H]1CCCN1C(=O)[C@H](CCCNC(=N)N)NC(=O)[C@@H]1CCCN1C(=O)[C@H](CCCNC(=N)N)NC(=O)[C@@H]1CCCN1C(=O)[C@H](CCCNC(=N)N)NC(=O)[C@@H]1CCCN1C(=O)[C@H](CCCNC(=N)N)NC(=O)[C@@H]1CCCN1C(=O)[C@H](CCCNC(=N)N)NC(=O)[C@@H]1CCCN1C(=O)[C@H](CCCNC(=N)N)NC(=O)[C@@H]1CCCN1C(=O)[C@H](CCCNC(=N)N)NC(=O)[C@@H]1CCCN1C(=O)[C@H](CCCNC(=N)N)NC(=O)[C@@H]1CCCN1C(=O)[C@H](CCCNC(=N)N)NC(=O)[C@@H]1CCCN1C(=O)[C@H](CCCNC(=N)N)NC(=O)[C@@H]1CCCN1C(=O)[C@H](CCCNC(=N)N)NC(=O)[C@@H]1CCCN1C(=O)[C@H](CCCNC(=N)N)NC(=O)[C@@H]1CCCN1C(=O)[C@H](CCCNC(=N)N)NC(=O)[C@@H]1CCCN1C(=O)[C@H](CCCNC(=N)N)NC(=O)[C@@H]1CCCN1C(=O)[C@H](CCCNC(=N)N)NC(=O)[C@@H]1CCCN1C(=O)[C@H](CCCNC(=N)N)NC(=O)[C@@H]1CCCN1)C(=O)O` [PR25], the Kd at p53^TAD2 turned out to be 3640 ± 1160 nM.

In the case of B1, binding in assay [1] was put at a Kd of 430 nM.

In assay [1], B2 had an equilibrium dissociation constant (Kd) of 1840 nM.

B3: p53^TAD2 (human p53 transactivation domain 2, amino acids 37 to 57) (domain or fragment, UniProt P04637 37-57, looked up)
chain: SQAMDDLMLSPDDIEQWFTED
notes: human p53, amino acids 37 to 57 (TAD2 construct); 15N-labelled for NMR, unlabelled for fluorescence polarisation; source: E. coli BL21-DE3 Star, purified (lysis in 6 M urea, Ni-NTA, TEV cleavage, second Ni-NTA, SEC on Superdex Peptide)
In the case of B3, the Kd in assay [2] amounted to 3640 nM; in assay [3], 2850 nM.
